Data set [1] deals with the molecule itself. Put plainly: SEC; Superdex 200 Increase 10/300 GL, 0.5 ml/min, 10 mM HEPES pH 7.3, 140 mM NaCl; 500 ul sample at 0.5 mg/ml; apparent molecular weights against Bio-Rad gel filtration standard. (In gel filtration, larger molecules generally elute earlier.)
Data set [2] deals with T1, Full length murine CD25 on HEK cells (mouse, UniProt P01590 22-268).
T1 sequence (looked up): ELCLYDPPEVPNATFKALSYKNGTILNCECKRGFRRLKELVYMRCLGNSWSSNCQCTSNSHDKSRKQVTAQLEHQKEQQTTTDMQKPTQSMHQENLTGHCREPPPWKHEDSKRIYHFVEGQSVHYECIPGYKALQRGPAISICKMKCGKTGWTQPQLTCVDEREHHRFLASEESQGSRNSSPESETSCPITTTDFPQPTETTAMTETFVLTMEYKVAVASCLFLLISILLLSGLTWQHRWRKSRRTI
Nature of the data set: cell-based or functional assay.

B1: CD25-IL2 fusion protein (other, mouse)
chain: ELCLYDPPEVPNATFKALSYKNGTILNCECKRGFRRLKELVYMRCLGNSWSSNCQCTSNSHDKSRKQVTAQLEHQKEQQTTTDMQKPTQSMHQENLTGHCREPPPWKHEDSKRIYHFVEGQSVHYECIPGYKALQRGPAISICKMKCGKTGWTQPQLTCVDEREHHRFLASEESQGSRNSSPESETSCPITTTDFPQPTETTAMTETFVLTMEYKGGGGSTRGGGGSTGGGGSGGGGSSAPTSSSTSSSTAEAQQQQQQQQQQQQHLEQLLMDLQELLSRMENYRNLKLPRMLTFKFYLPKQATELKDLQCLEDELGPLRHVLDLTQSKSFQLEDAENFISNIRVTVVKLKGSDNTFECQFDDESATVVDFLRRWIAFCQSIISTSPQ
notes: signal peptide in the construct; murine soluble CD25 (IL-2 receptor alpha chain), aa1-236 of NP_032393; 23-aa flexible linker; murine IL-2, aa20-169 of NP_032392; Glycosylated; about 70 kDa on SDS-PAGE, reducing and non-reducing; By SEC it runs as higher order multimers; also called CD25-IL2 FP; FP; source: HEK293F, stably transfected (pCMV), expression supernatant, purified (Ni-NTA); not shown: …
Consider B1, for which the binding result in data set [1] is listed as “binds”. In addition, in data set [2], the “proliferation ([3H]thymidine) of the IL-2 dependent mouse T cell line SJL-PLP.1; potency against mouse IL-2” value was ~32 fold less potent than IL-2.

B2: IL2-CD25 fusion protein (other, mouse)
chain: APTSSSTSSSTAEAQQQQQQQQQQQQHLEQLLMDLQELLSRMENYRNLKLPRMLTFKFYLPKQATELKDLQCLEDELGPLRHVLDLTQSKSFQLEDAENFISNIRVTVVKLKGSDNTFECQFDDESATVVDFLRRWIAFCQSIISTSPQGGGGSTRGGGGSTGGGGSGGGGSELCLYDPPEVPNATFKALSYKNGTILNCECKRGFRRLKELVYMRCLGNSWSSNCQCTSNSHDKSRKQVTAQLEHQKEQQTTTDMQKPTQSMHQENLTGHCREPPPWKHEDSKRIYHFVEGQSVHYECIPGYKALQRGPAISICKMKCGKTGWTQPQLTCVDEREHHRFLASEESQGSRNSSPESETSCPITTTDFPQPTETTAMTETFVLTMEYK
notes: signal peptide in the construct; murine IL-2, aa1-169 of NP_032392; 23-aa flexible linker; murine soluble CD25 (IL-2 receptor alpha chain), aa22-236 of NP_032393; Glycosylated; about 70 kDa on SDS-PAGE, reducing and non-reducing; By SEC it runs as higher order multimers; also called IL2-CD25 FP; FP; source: HEK293F, stably transfected (pIRES AcGFP1), expression supernatant, purified (Ni-NTA); not …
Turning to B2, in data set [1], the binding result is on record as “binds”. In data set [2], the “proliferation ([3H]thymidine) of the IL-2 dependent mouse T cell line SJL-PLP.1; potency against mouse IL-2” value was ~320 fold less potent than IL-2.

Values taken from article PMC7538601, “Low-Zone IL-2 Signaling: Fusion Proteins Containing Linked CD25 and IL-2 Domains Sustain Tolerogenic Vaccination in vivo and Promote Dominance of FOXP3^+ Tregs in vitro” (Frontiers in Immunology, 2020).
